Blank lines part the entries; values can stand above or below the substance they belong to.
Key:
[1] = target: fibrin (fibrinogen dried on microtiter wells and converted with thrombin); assay: direct ELISA on fibrin-coated wells, reference intact fibronectin
[2] = target: fibrin (fibrinogen dried on microtiter wells and converted with thrombin); assay: competition on fibrin-coated wells, competitor 125I-11 kDa (90 nM)
[3] = target: fibrin (fibrinogen dried on microtiter wells and converted with thrombin); assay: displacement of bound 125I-11 kDa from fibrin-coated wells by 2,000 nM unlabeled 11 kDa
fibrinogen-SEPHAROSE = assay: binding to a fibrinogen-SEPHAROSE column at 37° C. (material eluted with ethylene glycol)
[4] = target: fibrin (fibrinogen dried on microtiter wells and converted with thrombin); assay: competitive ELISA on fibrin-coated wells, Cheng and Prussoff equation from the IC50
[5] = target: fibrin (fibrinogen dried on microtiter wells and converted with thrombin); assay: competitive ELISA on fibrin-coated wells, competitor biotinylated Fn (2.3 nM)
[6] = target: fibrin (fibrinogen dried on microtiter wells and converted with thrombin); assay: competitive ELISA on fibrin-coated wells, competitor biotinylated Fn (2.3 nM), 10 µM of the fragment
[7] = target: fibrin (fibrinogen dried on microtiter wells and converted with thrombin); assay: competitive ELISA on fibrin-coated wells, reference intact Fn
[8] = target: fibrin-SEPHAROSE (bovine fibrinogen cross-linked to CNBr-activated SEPHAROSE and converted to fibrin with human thrombin) (bovine) (UniProt P02672); assay: fibrin-SEPHAROSE chromatography of 35S-labeled COS supernatant, densitometry of the autoradiogram
[9] = target: fibrin (fibrinogen dried on microtiter wells and converted with thrombin); assay: direct binding of 125I-11 kDa to fibrin-coated removable wells, non-linear regression, one binding site model
[10] = target: fibrin (fibrinogen dried on microtiter wells and converted with thrombin); assay: direct binding of 125I-11 kDa to fibrin-coated wells (15 ng fibrin)
[11] = target: fibrin (fibrinogen dried on microtiter wells and converted with thrombin); assay: direct ELISA on fibrin-coated wells (FIGS. 27A and 28A)
[12] = target: fibrin (fibrinogen dried on microtiter wells and converted with thrombin); assay: direct ELISA on fibrin-coated plates (FIG. 27A)
[13] = target: fibrin (fibrinogen dried on microtiter wells and converted with thrombin); assay: competitive ELISA on fibrin-coated wells, competitor biotinylated Fn (FIG. 29)
[14] = target: fibrin (fibrinogen dried on microtiter wells and converted with thrombin); assay: competitive ELISA on fibrin-coated wells, competitor biotinylated Fn (2.3 nM), 10 µM of the module pair
[15] = target: fibrin (fibrinogen dried on microtiter wells and converted with thrombin); assay: competitive ELISA on fibrin-coated plates, competitor Fn (2.3 nM)
[16] = target: fibrin (fibrinogen dried on microtiter wells and converted with thrombin); assay: competitive ELISA on fibrin-coated wells, competitor fibronectin (FIG. 29)
[17] = target: fibrin (fibrinogen dried on microtiter wells and converted with thrombin); assay: competitive ELISA against intact Fn on fibrin
[18] = target: fibrin (fibrinogen dried on microtiter wells and converted with thrombin); assay: competitive ELISA on fibrin-coated plates, competitor Fn (2.3 nM), 50,000 molar excess

- times more bound than intact fibronectin (mole-per-mole) [1]: 20 times
- IC50 [2]: 605 nM
- concentration at maximum inhibition [2]: 4 µM
- % of bound iodinated 11 kDa displaced [3]: 42%
- % of the applied material bound (fibrinogen-SEPHAROSE): 4 to 5%
Substance: 11 kDa C-terminal fibrin-binding fragment of fibronectin (peptide)

- Ki [4]: 145 nM
- IC50 [5]: 150 nM
- maximal % inhibition of biotinylated Fn binding [6]: 75%
- fold higher concentration than intact Fn for 50% inhibition [7]: 7.5 fold
Substance: 25.9 kDa N-terminal proteolytic fibrin-binding fragment of fibronectin (peptide)

- % of bound protein released by warming to 22° C. [8]: 35%
- % of bound protein that required 6M urea for elution [8]: 65%
Substance: ^35 S-methionine labeled recombinant ^10 F1-end (expressed in COS cells) (peptide)

- Kd [9]: 154 nM
- concentration at 50% saturation [10]: 90 nM
Substance: ^125 I-11 kDa fibrin-binding peptide

- concentration at saturation of binding [11]: 4.5 nM
Substance: biotinylated fibronectin

- IC50 [5]: 20 nM
- concentration for complete inhibition [5]: 2.2 µM
- concentration at 75% of the maximum binding [12]: 2.3 nM
- concentration at saturation of binding [12]: 4.54 nM
Substance: human plasma fibronectin (intact)

- maximum % inhibition of Fn binding [13]: 67%
- maximal % inhibition of biotinylated Fn binding [14]: 67%
- Ki [4]: 695 nM
- IC50 [5]: 700 nM
- % inhibition of Fn binding at saturating concentration [15]: 70%
- IC50 [15]: 750 nM
- concentration at maximum inhibition [15]: 10 µM
- % blocking of fibronectin binding [16]: 36%
- % inhibition (so in the source) [17]: 30%
Substance: recombinant ^4 F1.^5 F1 module pair of fibronectin (expressed in Saccharomyces cerevisiae) (peptide)

- % inhibition of Fn binding [18]: < 20%
Substance: recombinant ^7 F1 module of fibronectin (peptide)

- % inhibition of biotinylated Fn binding [5]: 10%
Substance: recombinant ^10 F1 module of fibronectin (peptide)

— patent US5792742
